Target: T1, cpHaloΔ9mer
T1 construct: Large fragment of split, circularly permuted HaloTag7; Made in E. coli; also called cpHalo_9mer; cpHalo156-141
Assay: ITC; 9mer peptide (30 mM) titrated into cpHaloΔ9mer (0.6 mM), HEPES 50 mM pH 7.3, NaCl 50 mM; three independent measurements

T1 sequence (chain, as listed by the source mutant): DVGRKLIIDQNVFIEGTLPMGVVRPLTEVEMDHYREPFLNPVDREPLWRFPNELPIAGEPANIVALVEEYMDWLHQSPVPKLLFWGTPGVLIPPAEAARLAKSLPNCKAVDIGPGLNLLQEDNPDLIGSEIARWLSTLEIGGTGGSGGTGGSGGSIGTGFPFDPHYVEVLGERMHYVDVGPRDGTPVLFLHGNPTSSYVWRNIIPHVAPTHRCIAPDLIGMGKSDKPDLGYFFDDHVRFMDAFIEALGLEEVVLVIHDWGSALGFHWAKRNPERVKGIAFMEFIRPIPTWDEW

- Kd: 5.3 mM
B1: 9mer peptide (peptide)
peptide: ARETFQAFR
notes: Free peptide titrated in ITC; also called PEP1
